Assay results as given in patent US20250361295A1.

Experiments:
[1] = molecular target: human LILRA6 protein (human) (UniProt Q6PI73); experiment: ELISA, LILRA6 protein
human LILRB4 (human) [2] = molecular target: human LILRB4 (human) (UniProt Q8NHJ6); experiment: FACS, 293F-hLILRB4 cells
human LILRB4 (human) [3] = molecular target: human LILRB4 (human) (UniProt Q8NHJ6); experiment: cell-based or functional assay
[4] = molecular target: cynomolgus (Macaca fascicularis) LILRB4 (cynomolgus (Macaca fascicularis)); experiment: FACS, CHO-S-cynoLILRB4 cells

Chain of human LILRB4 (human) (Q8NHJ6 22-448): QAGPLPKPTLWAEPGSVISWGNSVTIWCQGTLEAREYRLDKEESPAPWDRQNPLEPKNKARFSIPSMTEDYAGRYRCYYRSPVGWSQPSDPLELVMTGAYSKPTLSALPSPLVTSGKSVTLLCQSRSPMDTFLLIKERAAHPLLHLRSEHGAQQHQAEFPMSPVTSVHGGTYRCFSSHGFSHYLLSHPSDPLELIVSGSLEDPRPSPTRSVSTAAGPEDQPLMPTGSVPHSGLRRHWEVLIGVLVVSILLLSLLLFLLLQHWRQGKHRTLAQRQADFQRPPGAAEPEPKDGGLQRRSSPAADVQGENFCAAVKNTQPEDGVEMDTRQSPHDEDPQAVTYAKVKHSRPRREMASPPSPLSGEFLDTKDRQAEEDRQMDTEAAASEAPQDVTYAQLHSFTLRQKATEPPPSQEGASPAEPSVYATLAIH
Chain of human LILRA6 protein (human) (Q6PI73 24-447 limits assumed): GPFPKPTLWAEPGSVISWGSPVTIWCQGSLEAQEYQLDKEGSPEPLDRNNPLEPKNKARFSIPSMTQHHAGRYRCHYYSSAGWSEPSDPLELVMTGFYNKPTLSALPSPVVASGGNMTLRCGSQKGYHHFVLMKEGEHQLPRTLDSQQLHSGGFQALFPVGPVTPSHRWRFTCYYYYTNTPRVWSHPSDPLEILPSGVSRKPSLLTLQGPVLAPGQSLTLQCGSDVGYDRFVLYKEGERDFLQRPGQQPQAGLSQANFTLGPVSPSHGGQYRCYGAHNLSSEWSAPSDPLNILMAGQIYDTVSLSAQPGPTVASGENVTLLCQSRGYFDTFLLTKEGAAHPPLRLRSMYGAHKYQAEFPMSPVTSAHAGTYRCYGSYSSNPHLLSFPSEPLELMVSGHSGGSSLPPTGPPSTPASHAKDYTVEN

ELISA(OD450) [1] [OD450] | EC50 (human LILRB4 (human) [2]) [nM] | Max MFI (human LILRB4 (human) [2]) [MFI] | ADCP (%) at 133.3 nM, macrophages and MV-4-11 cells (human LILRB4 (human) [3]) [%] | EC50 (nM), ADCC on THP-1 cells (human LILRB4 (human) [3]) [nM] | FcγR stimulation (TNF-α, pg/mL) (human LILRB4 (human) [3]) [pg/mL] | Fold change (Compared to isotype) (human LILRB4 (human) [3]) [fold] | Max MFI [4] [MFI] | Binder | Max cell cytotoxicity (%), ADCC on THP-1 cells (human LILRB4 (human) [3]) [%]
0.302 |  |  |  |  |  |  |  | ch48-E11-H7-B5 (antibody, V domains shown) VH: EVQLVESGGGLVKPGGSLKLSCAASGFTFSSYAMSWVRQTPEKRLEWVASITIGDDTYYPDSVKGRFTISRDHAKNILYLQVSSLRSEDTAMYSCARGVNSYGSSYRYFDVWGAGTTVTVSS VL: DIVMTQSHKFMSTSVGDRVSITCKASQDVSTAVAWYQQKPGQSPKLLIYWASTRHTGVPDRFTGSGSGTDYTLTISSVQAEDLALYYCQQHYSIPFTFGAGTKLEK | 
1.32 | 4.39 | 30400 | 6.37 | 488 | 261 | 8.26 | 822 | NGM831 (antibody, V domains shown) VH: EVQLQQSGPEVKPGASVKISCKASGYTFTDYNMDWVKQSHGKSEWIGYIYPSNGGTGYNQKFKSKATLTVDKSSNTAYMELHSLTSEDSAVYYCARVPYYDYLYYYAMDYWGQGTSVTVSS VL: QIVLSQSPAILSASPGEKVTMACRASSSVSFMHWYQQKPGSSPQPWIYATSNLASGVPARFSGSGSGTSYSLTISRVEAEDAATYYCQQWSTNPYMYTFGGGTKLEIK | -6.89
